Test results from PMC8840469, “Directed Evolution of a Nonheme Diiron N-oxygenase AzoC for Improving Its Catalytic Efficiency toward Nitrogen Heterocycle Substrates” (Molecules, 2022).

Columns and labels:
AzoC = system: T1, AzoC; test: HPLC, initial velocity, Michaelis-Menten fit; assay type: biochemical, Streptomyces chattanoogensis; conditions: 30 °C, 1 h; 5.2 μM enzyme; substrate 0.05-2 mM; general in vitro reaction (not restated for kinetics): NADH 0.1 mM, PMS 0.75 mM, 20 mM HEPES pH 7.5, but 3 μM enzyme; read-out: Substrate: 2-methoxypyrimidin-5-amine / Km
T1 construct: nonheme diiron enzyme
Excerpt: (§1) HPLC, initial velocity, Michaelis-Menten fit on AzoC

COc1ncc(N)cn1 = system: T2, COc1ncc(N)cn1; test: HPLC, initial velocity, Michaelis-Menten fit; assay type: biochemical, Streptomyces chattanoogensis; conditions: 30 °C, 1 h, 5.2 μM enzyme, substrate 0.05-2 mM, general in vitro reaction (not restated for kinetics): NADH 0.1 mM, PMS 0.75 mM, 20 mM HEPES pH 7.5
T2 construct: nonheme diiron enzyme
Excerpt: as §1

Row | Compound | Km (AzoC) [µM] | Km (COc1ncc(N)cn1) [µM] | kcat (COc1ncc(N)cn1) [s⁻¹] | kcat/Km (COc1ncc(N)cn1) [M⁻¹ s⁻¹]
1 | COc1ncc(N)cn1 [compound 3, 2-methoxypyrimidin-5-amine] | 510 ± 59 | – | – | –
2 | AzoC (Streptomyces chattanoogensis) | – | 650 ± 120 | 0.018 ± 0.0014 | 27.7
